Measured values as given in US10508147B2, “Anti-nodal antibodies and methods of using same” (ANN AND ROBERT H. LURIE CHILDREN'S HOSPITAL OF CHICAGO, priority 2014, dated 2019).
Entries after “also recorded” stand apart in the source; their conditions may differ.

Legend:
hNodal(44-67) peptide [1] = target: T1, hNodal(44-67) peptide (Homo sapiens, UniProt Q96S42); experiment: ELISA screening of hybridoma supernatants on coated hNodal(44-67) and hNodal(44-67)E49A-E50A; type: binding; settings: peptides coated at 330 nM; supernatants at 5.0 μg/mL (33 nM)
T1 construct: made in house; host or cells: chemical synthesis (Fmoc solid phase)
Description: (§1) Screening of hybridoma supernatants was carried out by ELISA coating the hNodal(44-67) BSA-conjugated peptide. Nine clones were positive. The pre-selected hybridoma supernatants were screened using in parallel hNodal(44-67) and its mutated variant hNodal(44-67)E49A-E50A. The assay was performed coating the unconjugated peptides at 330 nM and testing the hybridoma supernatants at a total protein concentration of 5.0 μg/mL (33 nM).
(§2) For hybridoma supernatants screening, hNodal(44-67) and hNodal(44-67)E49A-E50A were coated at 330 nM diluted in PBS on polystyrene conical flat bottom 96-well plates at 4° C. overnight (100 μL/well). After incubation, the coated wells were washed three times with PBS containing 0.005% Tween-20 (PBS-T) and non-specific binding sites were blocked by incubating with 1% BSA in PBS (300 μL/well) for 1 h at 37° C. After washing three times with PBS-T, supernatants of hybridomas diluted in PBS at 33 nM were incubated for 1 h at 37° C. (100 μL/well). […] After incubation and three washes with PBS-T, bound antibodies were detected by adding 100 μL/well of freshly prepared 0-phenylenediamine (0.4 mg/mL) containing H2O2 (0.4 mg/mL) in 0.1 M citrate buffer (pH 5.2) (SIGMAFAST™ OPD tablet Sigma-Aldrich). The peroxidase reaction was stopped after 5 min with 50 μL/well of 2.5 M H2SO4 and the optical density was measured at 490 nm, using a microplate reader. […]

hNodal(44-67) peptide [2] = experiment: as above; type: binding, human; settings: ELISA
Description: as §1, §2

endogenous Nodal protein = target: T2, endogenous Nodal protein (Homo sapiens, UniProt Q96S42); experiment: Western blot detection of endogenous Nodal in human melanoma cell lysates with 3D1; type: binding; settings: 3D1 at 2 μg/mL; panel of human melanoma cell lines and HEK-293
T2 construct: recognize the endogenous forms of Nodal protein in human melanoma cells; endogenous in cells; host or cells: human melanoma lines PES, A-375, SK-MEL, WM 266, LCM (blot)
T2 sequence (Q96S42 238-347): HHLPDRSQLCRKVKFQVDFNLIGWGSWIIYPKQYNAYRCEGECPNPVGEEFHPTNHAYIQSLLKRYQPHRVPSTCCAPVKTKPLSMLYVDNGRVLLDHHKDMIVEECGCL
Description: Western blot analyses for the detection of endogenous Nodal protein were performed using the following human skin malignant melanoma cell lines: PES, A-375, SK-MEL, WM 266 and LCM. HEK-293 (human embryonic kidney) cells and 100 ng of rhNodal protein were used as positive controls. Cells were lysed performing three freeze/thaw cycles in 50 mM Tris-HCl pH 7.5, 500 mM NaCl, 1% NP-40, 10 mM EDTA, 1 mM MgCl2, 1 mM CaCl2, 10% Glycerol, with an added cocktail of protease inhibitors and PMSF (phenyl-methanesulfonylfluoride). Cell lysates were cleared by centrifugation at 12,000 rpm for 20 min at 4° C. and the supernatants were quantified by Bradford assay. 50 μg of cell lysate from each sample were applied to a 15% SDS-PAGE gel under reducing conditions and electrophoresed for 3 h at 80 V. Separated proteins were transferred onto a polyvinylidene difluoride (PVDF) membrane (Millipore), previously soaked in methanol 100% for 5 min. […] The target protein was detected using the enhanced chemi-luminescent substrate method with the SuperSignal West Pico kit provided by Pierce Chemical Co. following the manufacturer's instructions. Signals were acquired with the ChemiDoc XRS video densitometer using the Quantity One software.

C8161 melanoma cells = experiment: Soft agar clonogenic / anchorage independent growth assay; type: cell-based, human; settings: three weeks in soft agar, vs untreated and IgG control
Description: Untreated cells, or cells treated with either IgG Control or 3D1 anti-Nodal antibody for 72 hours were cultured in soft agar for three weeks (soft agar clonogenic assay). […] C8161 cells were treated with either 4 μg/ml of either Santa Cruz (SC), or 3D1 function blocking anti-Nodal antibodies, or IgG Control and cultured in three dimensional cultures for 24 hours to measure their ability to engage in vasculogenic mimicry (VM).
C8161 melanoma cells (5,000 cells/well) were suspended in 0.35% agarose, RPMI 1640; 10% serum with of either 4 μg/ml mouse IgG control (Jackson ImmunoResearch, West Groove, Pa.) or 3D1 mAb (2.8 μg/ml) and were then overlayed onto a solidified layer of 0.5% agar; RPMI 1640; 10% serum in 6-well dishes. Cell clusters were allowed to form and were scored (50 cells or larger clusters) after 3 weeks in culture. Triplicate wells were averaged from separate experiments and presented as a percentage (mean±SEM) of IgG control.

recombinant Nodal = target: T3, recombinant Nodal (Homo sapiens, UniProt Q96S42); experiment: SPR dose-dependent binding of human recombinant Nodal to 3D1 immobilized on the CM5 sensor chip; design: E. coli derived His238 Leu347, with an N-terminal Met; purchased R&D System 3218ND; host or cells: E. coli; settings: rhNodal injected, read-out: estimated KD
T3 sequence (Q96S42 238-347): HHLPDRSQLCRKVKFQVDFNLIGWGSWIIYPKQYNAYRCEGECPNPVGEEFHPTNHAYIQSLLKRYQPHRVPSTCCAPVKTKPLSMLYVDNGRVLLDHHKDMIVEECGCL
Description: Dose-dependent binding of human recombinant Nodal to 3D1 antibody immobilized on the CM5 sensor chip was characterized.

B1: 3D1: mouse monoclonal anti-Nodal antibody raised against hNodal(44-67); light chain SEQ ID NO:1, heavy chains SEQ ID NO:2 and 3 (protein)
light: DIKMTQSPASLSASVGETVTITCRASGNIHNYLAWYQQKQGKSPQLLVYNAKTLADGVPSRFSGSGSGTQYSLKINSLQPEDFGSYYCQHFWSTPHVRCWDQAGTETEAW
heavy 1: VKLVESGGGLVKPGGSLKLSCAASGFTFSSYAMSWVRQTPEKRLEWVASISSGGCTYYPDSVKGRFTISRDNARNILYLQMSSLRSEDTAMYYCARGSMITADGNSLLLCYGLLGSRNLXHR
heavy 2: VKLVESGGGLVQPGGSMKLSCVASGFTFRNYWMSWVRQSPEKGLEWVAEIRLKSDNYAARYAESVKGKFTISRDDSKSRLYLQMNSLRAEDTGIYYCTGIRRFAYWGQGTL
modifications: not fully specified; (120)..(120) Xaa can be any naturally occurring amino acid
recognition of the immobilized antigen hNodal(44-67) (hNodal(44-67) peptide [1]): recognized the immobilized antigen | recognition of wild-type hNodal peptide versus E49A-E50A mutated variant (hNodal(44-67) peptide [2]): displayed selectivity for wild type Nodal peptide; also recorded: much better than the mutated variant; also recorded: recognizes less robustly the mutated peptide variant | staining of endogenous Nodal forms in Western blot (endogenous Nodal protein): able to stain the immature form pro-Nodal | clonogenicity / anchorage independent growth in soft agar (C8161 melanoma cells): a decrease in clonogenicity | clonogenicity / anchorage independent growth in soft agar (C8161 melanoma cells; listed as 3D1 mAb): reduced ability to form non-adherent spheroidal clusters; also recorded: significant reduction in anchorage independent growth | Kd (recombinant Nodal): 6.6 nM
